The target of assay [1] is mono HSG peptide (peptide containing a single HSG substituent and a thiol). Nature of the assay: BIAcore, mono HSG peptide coupled by its thiol to a CM-5 chip.
Assay [2] addresses carcinoembryonic antigen (CEA) (UniProt P06731). Nature of the assay: analytical size exclusion HPLC, radioiodinated bsAb with 10-20× molar excess of CEA. In general terms: In gel filtration, larger molecules generally elute earlier.
The target in assay [3] is Ac-Lys(DTPA)-Tyr-Lys(DTPA)-Lys(Tscg-Cys)-NH2 (IMP 192). Nature of the assay: in vivo, GW-39 tumor in nude mice, calculated from biodistribution assuming one peptide per bsAb; 24 h after peptide.
Assay [4] has the same target. Nature of the assay: in vivo, GW-39 tumor in nude mice, calculated from biodistribution assuming one peptide per bsAb; 1 h after peptide.
For assay [5] the target is unchanged. Nature of the assay: in vivo, GW-39 tumor in nude mice, calculated from biodistribution assuming one peptide per bsAb; 30 min after peptide.
For assay [6] the target is unchanged. Nature of the assay: in vivo, GW-39 tumor in nude mice, calculated from biodistribution assuming one peptide per bsAb; 3 h after peptide.

In general, Kd refers to a measure of binding affinity in units of concentration.

Sequence of carcinoembryonic antigen (CEA) (P06731 35-685 limits assumed): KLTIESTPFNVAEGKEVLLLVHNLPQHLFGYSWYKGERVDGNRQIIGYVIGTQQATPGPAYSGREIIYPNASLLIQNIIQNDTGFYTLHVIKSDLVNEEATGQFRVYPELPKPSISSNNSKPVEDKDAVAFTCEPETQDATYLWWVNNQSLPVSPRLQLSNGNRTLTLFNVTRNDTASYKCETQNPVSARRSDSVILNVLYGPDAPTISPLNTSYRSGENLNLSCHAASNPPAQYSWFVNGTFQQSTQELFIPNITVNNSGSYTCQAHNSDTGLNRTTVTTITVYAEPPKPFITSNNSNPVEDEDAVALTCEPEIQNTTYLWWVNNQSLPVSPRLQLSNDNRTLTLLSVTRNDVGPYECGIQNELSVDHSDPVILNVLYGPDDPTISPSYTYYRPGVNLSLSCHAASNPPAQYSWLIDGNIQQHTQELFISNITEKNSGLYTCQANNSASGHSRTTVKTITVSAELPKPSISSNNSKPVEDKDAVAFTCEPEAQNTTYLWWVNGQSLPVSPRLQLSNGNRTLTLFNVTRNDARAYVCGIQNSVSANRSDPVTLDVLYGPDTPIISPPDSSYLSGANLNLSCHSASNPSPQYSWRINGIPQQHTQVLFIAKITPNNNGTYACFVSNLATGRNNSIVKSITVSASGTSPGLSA

Turning to “hMN-14 × m679 F(ab′)2 bsMAb (bispecific antibody)”, the Kd in assay [1] was determined as 1.5 nM.

Substance “hMN-14 × 734 (Fab × Fab) bsAb (bispecific antibody)” registered a percent of bsAb bound in assay [2] of 90%. In addition, the % saturation on hMN-14 × 734 (available DTPA binding sites on the tumor bound bsAb filled with 99m-Tc-IMP-192) in assay [3] was 28%; in assay [4], 25.8%; in assay [5], 25.4%; in assay [6] it was 25%.
